Experimental data published in doi:10.1101/2025.02.13.638205, “Cryo-EM structure of endogenous Plasmodium falciparum Pfs230 and Pfs48/45 fertilization complex” (bioRxiv, 2025).

How the values were obtained:
[1] = target: recombinant Pfs230 D1D2 (Plasmodium falciparum 3D7/NF54, UniProt P68874); assay: BLI; conditions: both partners purified
[2] = target: recombinant Pfs230 D5D6 (T1281-G1549) (Plasmodium falciparum 3D7, UniProt P68874); assay: BLI; conditions: both partners purified
[3] = target: recombinant Pfs230 D11D12 (D2446-T2818) (Plasmodium falciparum 3D7, UniProt P68874); assay: BLI; conditions: both partners purified
recombinant Pfs230 D11D12 (D2446-T2818), sequence (P68874 2446-2818, one chain of several): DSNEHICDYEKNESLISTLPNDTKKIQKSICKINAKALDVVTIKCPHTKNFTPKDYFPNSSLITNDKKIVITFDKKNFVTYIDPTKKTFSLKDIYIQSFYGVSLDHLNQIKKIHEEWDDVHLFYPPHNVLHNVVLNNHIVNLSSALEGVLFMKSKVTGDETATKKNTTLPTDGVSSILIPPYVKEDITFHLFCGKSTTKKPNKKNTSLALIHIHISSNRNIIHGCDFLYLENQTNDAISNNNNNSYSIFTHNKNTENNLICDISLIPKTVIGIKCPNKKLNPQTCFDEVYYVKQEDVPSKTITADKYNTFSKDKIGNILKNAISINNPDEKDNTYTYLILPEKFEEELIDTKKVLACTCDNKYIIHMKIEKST

[4] = target: Pfs230, endogenous, in fixed NF54/iGP2 stage V gametocytes (Plasmodium falciparum (endogenous in …, UniProt P68874)); assay: immunostaining of cells or tissue; conditions: one partner purified
Pfs230, endogenous, in fixed NF54/iGP2 stage V gametocytes (Plasmodium falciparum, sequence (P68874 21-3135): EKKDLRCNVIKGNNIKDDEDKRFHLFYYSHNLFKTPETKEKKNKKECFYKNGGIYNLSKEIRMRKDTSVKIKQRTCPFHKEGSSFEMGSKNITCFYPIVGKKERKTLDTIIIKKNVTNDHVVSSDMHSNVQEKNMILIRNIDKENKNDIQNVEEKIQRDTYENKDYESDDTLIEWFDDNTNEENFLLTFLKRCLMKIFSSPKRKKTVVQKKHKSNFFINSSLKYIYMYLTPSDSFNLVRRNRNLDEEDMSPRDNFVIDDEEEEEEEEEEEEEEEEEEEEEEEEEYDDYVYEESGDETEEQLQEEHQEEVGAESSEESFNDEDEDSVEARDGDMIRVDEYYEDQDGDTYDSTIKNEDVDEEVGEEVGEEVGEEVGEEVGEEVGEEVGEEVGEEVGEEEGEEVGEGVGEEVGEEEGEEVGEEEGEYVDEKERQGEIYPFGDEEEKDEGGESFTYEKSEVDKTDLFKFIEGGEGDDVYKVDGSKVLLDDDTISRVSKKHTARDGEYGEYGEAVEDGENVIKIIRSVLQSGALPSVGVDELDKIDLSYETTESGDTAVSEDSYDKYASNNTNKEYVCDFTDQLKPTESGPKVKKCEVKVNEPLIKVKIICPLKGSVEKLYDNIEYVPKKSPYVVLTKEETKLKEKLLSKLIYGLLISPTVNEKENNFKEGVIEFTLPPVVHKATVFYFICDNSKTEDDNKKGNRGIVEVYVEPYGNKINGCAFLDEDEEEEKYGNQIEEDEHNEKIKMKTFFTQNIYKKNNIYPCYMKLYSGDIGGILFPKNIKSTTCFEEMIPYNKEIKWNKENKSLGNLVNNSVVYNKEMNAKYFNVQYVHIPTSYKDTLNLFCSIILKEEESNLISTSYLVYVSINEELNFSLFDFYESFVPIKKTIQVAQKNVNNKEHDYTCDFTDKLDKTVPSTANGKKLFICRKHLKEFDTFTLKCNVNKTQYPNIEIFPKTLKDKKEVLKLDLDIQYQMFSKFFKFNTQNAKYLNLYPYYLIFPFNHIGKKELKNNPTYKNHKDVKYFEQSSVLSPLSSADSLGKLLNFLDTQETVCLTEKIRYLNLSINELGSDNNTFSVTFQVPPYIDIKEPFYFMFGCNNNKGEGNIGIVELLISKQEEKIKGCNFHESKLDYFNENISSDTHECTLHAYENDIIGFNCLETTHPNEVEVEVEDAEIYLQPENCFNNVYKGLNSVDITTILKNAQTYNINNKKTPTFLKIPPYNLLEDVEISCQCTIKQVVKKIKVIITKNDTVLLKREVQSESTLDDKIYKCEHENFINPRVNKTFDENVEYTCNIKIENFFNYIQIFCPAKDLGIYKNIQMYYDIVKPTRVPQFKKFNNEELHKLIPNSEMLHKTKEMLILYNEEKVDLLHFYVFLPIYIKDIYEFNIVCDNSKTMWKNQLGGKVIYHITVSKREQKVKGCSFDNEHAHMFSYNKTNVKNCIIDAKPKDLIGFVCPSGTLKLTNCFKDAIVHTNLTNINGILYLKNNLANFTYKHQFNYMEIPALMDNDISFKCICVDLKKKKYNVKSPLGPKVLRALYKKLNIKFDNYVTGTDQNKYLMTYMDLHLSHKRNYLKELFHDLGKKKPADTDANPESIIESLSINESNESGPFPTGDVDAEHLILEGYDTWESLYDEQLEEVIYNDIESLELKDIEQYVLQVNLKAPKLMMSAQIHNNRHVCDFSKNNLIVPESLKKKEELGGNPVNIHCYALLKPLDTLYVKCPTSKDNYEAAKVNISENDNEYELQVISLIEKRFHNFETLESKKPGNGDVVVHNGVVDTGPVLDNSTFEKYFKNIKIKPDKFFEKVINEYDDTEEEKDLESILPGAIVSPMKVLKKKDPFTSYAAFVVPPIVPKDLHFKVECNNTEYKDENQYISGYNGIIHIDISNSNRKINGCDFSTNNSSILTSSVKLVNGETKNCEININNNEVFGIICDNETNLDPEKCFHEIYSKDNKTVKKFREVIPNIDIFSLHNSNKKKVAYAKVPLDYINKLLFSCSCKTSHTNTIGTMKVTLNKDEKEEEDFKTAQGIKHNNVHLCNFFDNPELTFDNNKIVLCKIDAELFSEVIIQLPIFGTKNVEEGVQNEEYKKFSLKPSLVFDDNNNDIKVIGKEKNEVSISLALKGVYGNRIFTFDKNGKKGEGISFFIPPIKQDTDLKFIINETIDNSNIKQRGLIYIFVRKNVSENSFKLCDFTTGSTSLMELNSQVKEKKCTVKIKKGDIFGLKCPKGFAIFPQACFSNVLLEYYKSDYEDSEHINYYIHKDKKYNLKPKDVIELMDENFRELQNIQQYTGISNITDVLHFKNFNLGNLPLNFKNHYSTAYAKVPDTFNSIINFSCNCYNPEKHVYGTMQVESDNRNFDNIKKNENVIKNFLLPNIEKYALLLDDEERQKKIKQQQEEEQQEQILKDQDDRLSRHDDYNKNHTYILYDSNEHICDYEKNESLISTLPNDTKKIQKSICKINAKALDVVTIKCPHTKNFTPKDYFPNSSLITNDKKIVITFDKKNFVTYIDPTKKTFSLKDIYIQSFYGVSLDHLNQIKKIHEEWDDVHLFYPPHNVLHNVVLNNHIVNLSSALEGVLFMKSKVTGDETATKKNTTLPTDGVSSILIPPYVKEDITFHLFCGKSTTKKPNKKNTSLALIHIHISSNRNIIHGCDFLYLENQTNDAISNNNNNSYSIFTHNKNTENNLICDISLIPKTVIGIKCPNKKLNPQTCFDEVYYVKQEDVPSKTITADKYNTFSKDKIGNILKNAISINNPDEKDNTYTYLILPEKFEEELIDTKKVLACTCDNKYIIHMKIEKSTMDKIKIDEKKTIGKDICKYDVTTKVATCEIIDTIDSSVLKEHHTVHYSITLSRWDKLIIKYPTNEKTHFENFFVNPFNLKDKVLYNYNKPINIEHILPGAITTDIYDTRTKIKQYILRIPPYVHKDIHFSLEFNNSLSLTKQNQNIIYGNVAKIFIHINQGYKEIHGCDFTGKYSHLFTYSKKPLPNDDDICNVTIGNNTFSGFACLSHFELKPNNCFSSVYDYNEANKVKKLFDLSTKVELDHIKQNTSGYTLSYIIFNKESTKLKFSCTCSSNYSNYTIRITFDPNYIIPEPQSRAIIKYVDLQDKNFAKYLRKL

[5] = target: T1, Pfs48/45, endogenous, from P. falciparum stage V gametocytes (Plasmodium falciparum NF54 (NF54/iGP2 …)); assay: pull-down; conditions: one partner purified
T1 construct: Pfs48/45 of Plasmodium falciparum, three 6-cysteine domains (D1-D3), migrates at about 50 kDa; residues 28-428 fitted in the cryo-EM model; also called P48/45; source: endogenous, P. falciparum NF54/iGP2 Pfs230FL stage V gametocytes; co-purified with Pfs230 (StrepTactin XT, SEC) and in parasite lysate
T1 chain: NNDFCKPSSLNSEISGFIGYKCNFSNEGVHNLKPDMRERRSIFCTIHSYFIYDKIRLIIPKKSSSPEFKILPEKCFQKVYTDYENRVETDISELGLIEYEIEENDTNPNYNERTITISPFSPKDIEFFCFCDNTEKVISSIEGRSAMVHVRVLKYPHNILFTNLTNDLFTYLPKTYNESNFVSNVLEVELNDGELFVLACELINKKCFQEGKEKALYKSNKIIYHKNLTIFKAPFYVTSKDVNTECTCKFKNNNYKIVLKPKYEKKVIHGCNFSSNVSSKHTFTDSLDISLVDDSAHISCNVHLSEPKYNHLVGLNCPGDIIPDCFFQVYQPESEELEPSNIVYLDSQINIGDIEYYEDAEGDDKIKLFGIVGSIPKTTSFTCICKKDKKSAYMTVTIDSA

recombinant Pfs230 D5D6 (T1281-G1549), sequence (P68874 1281-1549): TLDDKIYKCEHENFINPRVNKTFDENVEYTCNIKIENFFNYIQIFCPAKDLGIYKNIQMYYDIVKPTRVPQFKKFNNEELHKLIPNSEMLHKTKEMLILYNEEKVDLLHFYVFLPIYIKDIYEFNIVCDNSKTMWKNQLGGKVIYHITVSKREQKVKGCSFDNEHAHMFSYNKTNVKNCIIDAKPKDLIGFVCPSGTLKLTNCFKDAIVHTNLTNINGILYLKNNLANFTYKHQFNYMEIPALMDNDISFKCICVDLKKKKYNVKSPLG

Binder | binding result [1] | binding result [2] | binding result [3] | binding result [4] | binding result [5]
nanobody W2809 (VHH) VHH: QVQLQESGGGLVQAGGSLRLSCAASEHTFRDYAMGWFRQAPGKEREFVAAISWSGSIKYYADSVKGRFTISRDNAKRTQYLQMSSLKPEDTAVYYCAARWPGGGMWYEPPYDYWGQGTQVTVSS | no binding | no binding | no binding |  | 
nanobody W2812 (VHH) VHH: QVQLQESGGGLVQPGGSLRLSCAASGRTFSSYMMAWFRQSQGNERELVAGLTRSGVSAYYADSVKGRFTISRDNAKNTVYLQMNSLKPKDTAVYYCAAASTTYINHIYTNPSNYPHWGPGTQVTVSS | no binding (tested: 100 nM) | no binding (tested: 100 nM) | no binding (tested: 100 nM) | binds | 
anti-Pfs48/45 monoclonal antibody TB31F (antibody, V domains shown) VH: EVQLVQSGGGLVQPGGSLRLSCAASGFTFNNYWMSWVRQAPGKGLEWVSSISNIGGTIYYPDSVKGRFTISRDNSKNTLYLQMNSLRAEDTAVYYCTRDLRMSDYFDYWGQGTMVTVSS VL: NFMLTQPHSVSESPGKTVTISCTRSTGNIGSNYVSWYQQRPGSSPTTVIYRDDQRPSGVPDRFSGSIDRSSNSASLTISGLKTEDEADYYCHSYSTGMYIFGGGTKLTVL |  |  |  |  | binds
nanobody W2810 (VHH) VHH: QVQLQESGGGLVQAGGSLRLSCAASGRTFSSYAMGWFHQAPGKEREFVASISWSGGSIRYADSVKGRFTVSRDNAKNTAYLQMNSLKPEDTGVYYCAAGPYSSDYGGFGSWGQGTQVTVSS | no binding (tested: 100 nM) | no binding (tested: 100 nM) | no binding (tested: 100 nM) | binds | 
